From US20240052042A1 (Novartis, published 2024)

T1: human NPR1 on CHO-K1 cells (human, UniProt P16066 33-1061)
T1 construct: also called hNPR1 CHO K1; human NPR1 expressing CHO-K1 cells
T1 sequence: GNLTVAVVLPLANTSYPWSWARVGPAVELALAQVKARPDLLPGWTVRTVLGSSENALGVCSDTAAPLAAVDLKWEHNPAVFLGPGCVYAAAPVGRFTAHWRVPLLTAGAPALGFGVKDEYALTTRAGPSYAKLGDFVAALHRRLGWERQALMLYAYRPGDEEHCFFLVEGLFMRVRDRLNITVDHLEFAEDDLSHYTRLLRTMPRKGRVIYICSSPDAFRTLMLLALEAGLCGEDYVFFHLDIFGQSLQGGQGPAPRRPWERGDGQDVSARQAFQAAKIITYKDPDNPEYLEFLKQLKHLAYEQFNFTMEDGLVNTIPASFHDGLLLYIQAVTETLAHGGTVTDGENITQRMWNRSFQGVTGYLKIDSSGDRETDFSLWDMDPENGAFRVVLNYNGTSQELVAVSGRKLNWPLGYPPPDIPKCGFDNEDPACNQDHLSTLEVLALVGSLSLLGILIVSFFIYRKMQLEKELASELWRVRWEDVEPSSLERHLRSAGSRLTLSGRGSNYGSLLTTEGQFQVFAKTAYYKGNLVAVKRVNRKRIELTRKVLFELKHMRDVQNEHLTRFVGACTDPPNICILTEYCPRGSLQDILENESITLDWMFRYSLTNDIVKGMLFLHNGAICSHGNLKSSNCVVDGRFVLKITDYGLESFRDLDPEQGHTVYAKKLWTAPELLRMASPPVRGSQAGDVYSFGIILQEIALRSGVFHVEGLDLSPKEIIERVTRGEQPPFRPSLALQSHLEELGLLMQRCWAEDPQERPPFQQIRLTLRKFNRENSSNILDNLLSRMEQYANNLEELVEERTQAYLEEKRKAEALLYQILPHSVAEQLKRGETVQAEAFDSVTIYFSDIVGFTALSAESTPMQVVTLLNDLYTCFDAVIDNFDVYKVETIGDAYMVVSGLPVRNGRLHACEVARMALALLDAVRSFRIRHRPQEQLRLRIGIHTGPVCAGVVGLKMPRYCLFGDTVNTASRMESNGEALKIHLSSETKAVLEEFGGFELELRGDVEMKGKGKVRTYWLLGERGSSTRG

T2: human NPR1 on CHO-K1 cells in the presence of ANP (human, UniProt P01160 124-151)
T2 construct: also called hNPR1 CHO K1 + 100 nM ANP
T2 sequence: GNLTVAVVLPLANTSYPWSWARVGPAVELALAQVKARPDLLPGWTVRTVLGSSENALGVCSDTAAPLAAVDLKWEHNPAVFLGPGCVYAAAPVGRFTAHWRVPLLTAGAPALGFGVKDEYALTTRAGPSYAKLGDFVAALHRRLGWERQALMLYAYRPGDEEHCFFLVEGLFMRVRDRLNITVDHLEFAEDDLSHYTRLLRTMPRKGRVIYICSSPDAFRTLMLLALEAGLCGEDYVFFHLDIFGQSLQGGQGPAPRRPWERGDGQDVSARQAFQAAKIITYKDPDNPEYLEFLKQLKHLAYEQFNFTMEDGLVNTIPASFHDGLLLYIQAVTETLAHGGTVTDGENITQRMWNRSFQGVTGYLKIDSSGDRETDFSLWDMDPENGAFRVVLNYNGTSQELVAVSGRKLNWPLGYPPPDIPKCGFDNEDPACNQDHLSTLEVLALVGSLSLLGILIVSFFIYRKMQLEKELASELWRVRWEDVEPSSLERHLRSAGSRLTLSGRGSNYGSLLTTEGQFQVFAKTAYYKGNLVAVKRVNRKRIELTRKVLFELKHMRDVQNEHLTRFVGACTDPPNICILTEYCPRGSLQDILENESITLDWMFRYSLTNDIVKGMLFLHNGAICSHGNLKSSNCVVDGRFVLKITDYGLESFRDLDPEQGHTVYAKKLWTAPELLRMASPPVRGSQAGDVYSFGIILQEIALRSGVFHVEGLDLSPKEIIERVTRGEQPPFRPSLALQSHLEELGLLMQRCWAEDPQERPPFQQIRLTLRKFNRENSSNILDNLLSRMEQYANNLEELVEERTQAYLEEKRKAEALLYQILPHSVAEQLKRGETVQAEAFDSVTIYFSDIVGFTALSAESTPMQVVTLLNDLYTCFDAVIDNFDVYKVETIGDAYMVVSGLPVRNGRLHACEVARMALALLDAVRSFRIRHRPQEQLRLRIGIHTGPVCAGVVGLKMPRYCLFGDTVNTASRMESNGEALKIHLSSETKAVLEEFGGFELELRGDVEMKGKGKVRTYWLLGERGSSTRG
T2 sequence (peptide): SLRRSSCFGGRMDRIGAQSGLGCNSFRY

T3: hNPR1-ANP complex (human, UniProt P01160 124-151, limits assumed)
T3 construct: hNPR1 antigen in the presence of ANP; also called hNPR1 + 100 nM ANP
T3 sequence: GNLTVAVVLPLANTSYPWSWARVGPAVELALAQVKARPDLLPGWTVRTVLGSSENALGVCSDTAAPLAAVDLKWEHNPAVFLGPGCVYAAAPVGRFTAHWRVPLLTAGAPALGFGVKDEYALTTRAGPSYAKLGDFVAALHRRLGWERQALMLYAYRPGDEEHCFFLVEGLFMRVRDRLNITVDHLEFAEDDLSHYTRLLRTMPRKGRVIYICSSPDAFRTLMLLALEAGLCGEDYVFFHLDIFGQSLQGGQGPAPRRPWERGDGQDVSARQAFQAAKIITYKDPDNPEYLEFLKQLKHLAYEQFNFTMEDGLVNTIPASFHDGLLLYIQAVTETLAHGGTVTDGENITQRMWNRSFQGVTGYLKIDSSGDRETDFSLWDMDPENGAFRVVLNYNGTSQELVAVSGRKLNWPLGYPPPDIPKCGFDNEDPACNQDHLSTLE
T3 sequence (peptide): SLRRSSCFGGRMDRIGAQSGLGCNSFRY

T4: rat NPR1 (rNPR1) (rat, UniProt P18910 29-469, limits assumed)
T4 construct: Soluble antigen
T4 sequence: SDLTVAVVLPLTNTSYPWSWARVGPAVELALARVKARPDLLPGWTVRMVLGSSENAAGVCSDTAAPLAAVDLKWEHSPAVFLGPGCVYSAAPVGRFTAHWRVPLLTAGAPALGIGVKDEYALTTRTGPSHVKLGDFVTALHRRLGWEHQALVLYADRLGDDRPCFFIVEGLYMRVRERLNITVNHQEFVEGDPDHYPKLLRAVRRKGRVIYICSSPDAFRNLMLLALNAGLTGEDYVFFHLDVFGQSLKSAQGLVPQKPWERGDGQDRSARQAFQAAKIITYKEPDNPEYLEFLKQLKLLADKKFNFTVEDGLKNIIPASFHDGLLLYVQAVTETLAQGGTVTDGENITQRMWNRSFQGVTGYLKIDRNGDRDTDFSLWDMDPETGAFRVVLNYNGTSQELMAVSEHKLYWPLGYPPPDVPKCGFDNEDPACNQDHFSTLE


Legend:
[1] = target: constitutively active human NPR1 mutant (W74R) (human) (UniProt P16066); assay: ELISA, IgG titrated on coated antigen, fluorescence [Cont.]
[2] = target: T1, human NPR1 on CHO-K1 cells; assay: flow cytometry, hNPR1 CHO-K1 cells, IgG
[3] = target: T2, human NPR1 on CHO-K1 cells in the …; assay: flow cytometry, hNPR1 CHO-K1 cells, IgG
[4] = target: T3, hNPR1-ANP complex; assay: ELISA, 1 µM IgG; set-up: unit not given here
[5] = target: T4, rat NPR1 (rNPR1); assay: ELISA, 1 µM IgG; set-up: unit not given here
[6] = target: constitutively active human NPR1 mutant (W74R) (human) (UniProt P16066); assay: ELISA, 1 µM IgG
[7] = target: W74R hNPR1 mutant in the presence of ANP (human) (UniProt P01160); assay: ELISA, 1 µM IgG
[8] = target: T1, human NPR1 on CHO-K1 cells; assay: cell-based or functional assay

EC50 (read off the curve) [1] [nM]	flow cytometry S/BG at 1 µM IgG [2] [S/BG]	flow cytometry S/BG at 1 µM IgG [3] [S/BG]	ELISA binding at 1 µM IgG [4]	ELISA binding at 1 µM IgG [5]	ELISA binding at 1 µM IgG [6]	ELISA binding at 1 µM IgG [7]	cGMP conc [nM] at 1 µM IgG, +0.075 nM ANP [8] [nM]	cGMP conc [nM] at 1 µM IgG, without ANP [8] [nM]	Binder
2	8	44	24	3	53	20	9	4	YY07 (IgG format) (antibody, V domains shown, also called YY07_LALA) VH: EVQLVQSGAEVKKPGESLKISCKGSGYSFTSYWISWVRQMPGKGLEWMGIIYPGTSYTRYSPSFQGQVTISADKSISTAYLQWSSLKASDTAMYYCARGSLPGLLGFDHWGQGTLVTVSS VL: QSVLTQPPSVSGAPGQRVTISCTGSSSNIGAGYDVHWYQQLPGTAPKLLIYGNSNRPNGVPDRFSGSKSGTSASLAITGLQAEDEADYYCQSYDSPTSSSVFGGGTKLTVLG
5	26	18	102	3	83	86	15	12	YY06 (IgG format) (antibody, V domains shown, also called YY06_LALA) VH: EVQLLESGGGLVQPGGSLRLSCAASGFTFSSYAISWVRQAPGKGLEWVSAISGSGGSTYYAESVKGRFTISRDNSKNTLYLQMNSLRAEDTAVYYCARPYLGDRRSYGFDHWGQGTLVTVSS VL: QSALTQPASVSGSPGQSITISCTGTSSDVGSYNLVSWYQQHPGKAPKLMIYEGSKRPSGVSNRFSGSKSGNTASLTISGLQAEDEADYYCSSYGFHIVVVVFGGGTKLTVLG
